# Ends that are not written are not given here.
# T1: recombinant bactericidal/permeability-increasing protein (rBPI) (human, UniProt P17213 32-487, labelled with NT647 (NHS labelling kit) in the MST experiments only)
# T1 construct: also called rBPI NT647
# T1 sequence (looked up): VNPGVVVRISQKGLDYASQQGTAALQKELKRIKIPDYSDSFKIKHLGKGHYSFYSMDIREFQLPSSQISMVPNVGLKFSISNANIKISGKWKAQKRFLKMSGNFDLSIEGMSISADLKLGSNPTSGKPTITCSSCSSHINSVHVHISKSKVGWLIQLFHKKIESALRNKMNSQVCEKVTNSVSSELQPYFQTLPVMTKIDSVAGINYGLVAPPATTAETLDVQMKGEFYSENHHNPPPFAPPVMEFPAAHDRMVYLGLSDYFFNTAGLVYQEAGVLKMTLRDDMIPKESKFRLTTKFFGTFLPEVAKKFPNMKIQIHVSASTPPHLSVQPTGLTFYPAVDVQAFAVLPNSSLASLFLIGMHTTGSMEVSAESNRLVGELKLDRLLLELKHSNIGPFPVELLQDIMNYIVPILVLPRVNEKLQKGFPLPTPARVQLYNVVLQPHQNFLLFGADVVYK
# Legend:
# Details in all cases: both partners purified
# [1] = target: T1, recombinant …; assay: ELISA; BPI microtiter binding assay, competition: 20 nM BPI pre-incubated 30 min with increasing lipopeptide, loaded on LPS biotin (2 μg/ml) on streptavidin plates, 1 h 37°C; 150 mM NaCl, 50 mM HEPES, 1 g/l BSA; bound BPI detected with anti-human BPI antibody
# [2] = target: T1, recombinant …; assay: NanoDSF (thermal shift)
# [3] = target: T1, recombinant …; assay: MST
binder,measurement,setting,value
"CSKKKK (not fully specified, also called mono-acylated lipopeptide; source: synthetic peptide; bought: EMC Microcollections) [PamCSK4]",binding result,[1],binds
"CSKKKK (not fully specified (residue 1); printed as (R)-Pam2CSK4, also called di-acylated lipopeptide; source: synthetic peptide; bought: EMC Microcollections) [(R)-Pam2CSK4]",binding result,[2],binds
CSKKKK (also called tri-acylated bLP; source: synthetic peptide; bought: EMC Microcollections) [(R)-Pam3CSK4],Kd,[3],162 ± 23.5 nM

# From paper PMC6293271, “Bactericidal/Permeability-Increasing Protein Is an Enhancer of Bacterial Lipoprotein Recognition” (Frontiers in Immunology, 2018)
